{"source": "paper PMC11969719", "about": "“Rapid synthesis of glycosylated insulins by flow-based peptide synthesis” (Chemical Science, 2025)", "origin": "cited, not measured here", "conditions": "ref [5c,18]", "source_text": "To address this issue, we incorporated an isoacyl dipeptide unit at the Thr^A8-Ser^A9 position (superscripts indicate positions in the A-chain), following a previous report,[8b] as the isoacyl dipeptide improves both peptide solubility and synthetic efficiency.[19]"}
{"substance": "A-chain: insulin A-chain, 21-amino acid chain of human insulin", "values": [{"measurement": "solubility (in words)", "value": "poor solubility"}]}
